Assay results taken from PMC12445000, “Domain-Specific DNA Binding Activities of BRCA1 Reveal Substrate Preferences for Homologous Recombination and Telomere Regulation”.

How the values were obtained:
BRCA1 DBD2 = BRCA1 DBD2 (human, UniProt P38398 894-1057); test: BLI; 150 mM KCl; BLI (BLItz, SAX sensors, immobilized biotin-DNA) in Buffer H: 20 mM HEPES pH 7.5, 150 mM KCl, 5 mM TCEP, 5% glycerol, 25 C; steady-state 1:1 fit; errors 95% CI, n=3; conditions: protein: recombinant, tags: Ni-NTA purified (details not given)
BRCA1 DBD2, sequence (P38398 894-1057): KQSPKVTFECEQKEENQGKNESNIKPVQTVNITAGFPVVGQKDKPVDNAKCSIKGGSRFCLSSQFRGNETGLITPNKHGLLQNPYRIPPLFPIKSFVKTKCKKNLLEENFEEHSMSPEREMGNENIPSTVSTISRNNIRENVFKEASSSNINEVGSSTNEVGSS

BRCA1 DBD1 = BRCA1 DBD1 (human, UniProt P38398 330-554); test: as above; conditions: protein: recombinant, tags: Ni-NTA purified (details not given)
BRCA1 DBD1, sequence (P38398 330-554): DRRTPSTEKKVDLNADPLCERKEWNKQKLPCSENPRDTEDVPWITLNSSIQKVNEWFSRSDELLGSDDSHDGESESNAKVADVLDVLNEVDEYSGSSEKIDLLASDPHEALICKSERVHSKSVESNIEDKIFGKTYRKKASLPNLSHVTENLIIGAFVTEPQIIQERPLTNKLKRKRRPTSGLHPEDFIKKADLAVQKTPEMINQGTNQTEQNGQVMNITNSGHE

[1] = label: 5' biotin on strand 1, 5' Cy3 on strand 2, blunt

Binder: TTAGGGTTAGGGTTAGGGTTAGGG (structured_DNA) [BioG4Telo (G4)]
- Kd (BRCA1 DBD2; label: 5' biotin, G4): 34.7 ± 16.1 nM
- Kd (BRCA1 DBD1; label: 5' biotin, G4): 67.2 ± 12.5 nM

B1: Bioss60R (ssDNA) (ssDNA)
DNA: CCATGGCTCCTGAGCTAGCTGCAGTAGCCTAAAGGATGAAACTAGGATCTTATGCTCCAT
- Kd (BRCA1 DBD2; label: 5' biotin): 40.8 ± 3.7 nM
- Kd (BRCA1 DBD1; label: 5' biotin): 68.4 ± 33.8 nM

B2: Biods60R (dsDNA) (dsDNA)
DNA 1: CCATGGCTCCTGAGCTAGCTGCAGTAGCCTAAAGGATGAAACTAGGATCTTATGCTCCAT
DNA 2: ATGGAGCATAAGATCCTAGTTTCATCCTTTAGGCTACTGCAGCTAGCTCAGGAGCCATGG
- Kd (BRCA1 DBD2; [1]): 44.6 ± 6 nM
- Kd (BRCA1 DBD1; [1]): 35.5 ± 9 nM
